Assay results taken from patent publication US11306156.
Values belong to the substance of their own block, whether it stands above or below them.

What was measured:
[1] = target: tissue factor (TF) antigen (UniProt P13726); experiment: SPR as for KD; reference: wild-type D3H44 Fab
[2] = target: tissue factor (TF) antigen (UniProt P13726); experiment: SPR, ProteOn XPR36; His-tagged Fab captured on anti-penta-His, TF injected; 1:1 fit; estimated (*) from the Fab that differs only in the L chain tag
[3] = target: tissue factor (TF) antigen (UniProt P13726); experiment: SPR as for KD; reference: wild-type D3H44 Fab; estimated (*) from the Fab that differs only in the L chain tag
[4] = target: tissue factor (TF) antigen (UniProt P13726); experiment: SPR, ProteOn XPR36; His-tagged Fab captured on anti-penta-His, TF injected; 1:1 fit
[5] = target: D3H44 light chain F116A_L135V (Kabat), N-terminal HA or FLAG tag; experiment: LCCA co-expression, competing light chain m33, L1:L2 DNA 1:9 normalized to 1:1, SPR tag read-out
[6] = target: D3H44 light chain F116A_L135V (Kabat), N-terminal HA or FLAG tag; experiment: LCCA co-expression, competing light chain m35, L1:L2 DNA 1:3 normalized to 1:1, SPR tag read-out
[7] = target: D3H44 light chain F116A_L135V (Kabat), N-terminal HA or FLAG tag; experiment: LCCA co-expression, competing light chain m33, L1:L2 DNA 1:3 normalized to 1:1, SPR tag read-out
[8] = target: D3H44 light chain S131T_L135F_S176F_T178F (Kabat), N-terminal HA or FLAG tag; experiment: LCCA co-expression, competing light chain m34, L1:L2 DNA 1:9 normalized to 1:1, SPR tag read-out
[9] = target: D3H44 light chain L135W_S176L (Kabat), N-terminal HA or FLAG tag; experiment: as above
[10] = target: D3H44 light chain S131T_L135F_S176F_T178F (Kabat), N-terminal HA or FLAG tag; experiment: LCCA co-expression, competing light chain m34, L1:L2 DNA 1:3 normalized to 1:1, SPR tag read-out
[11] = target: D3H44 light chain L135W_S176L (Kabat), N-terminal HA or FLAG tag; experiment: as above
[12] = target: D3H44 light chain F116A_L135V (Kabat), N-terminal HA or FLAG tag; experiment: LCCA co-expression, competing light chain m35, L1:L2 DNA 1:9 normalized to 1:1, SPR tag read-out
[13] = target: D3H44 light chain Q124E_Q160E_T180E (Kabat), N-terminal HA or FLAG tag; experiment: LCCA co-expression, competing light chain m38, L1:L2 DNA 1:9 normalized to 1:1, SPR tag read-out
[14] = target: D3H44 light chain Q124R_Q160K_T178R (Kabat), N-terminal HA or FLAG tag; experiment: LCCA co-expression, competing light chain m39, L1:L2 DNA 1:9 normalized to 1:1, SPR tag read-out
[15] = target: D3H44 light chain Q124E_Q160E_T180E (Kabat), N-terminal HA or FLAG tag; experiment: LCCA co-expression, competing light chain m38, L1:L2 DNA 1:3 normalized to 1:1, SPR tag read-out
[16] = target: D3H44 light chain Q124R_Q160K_T178R (Kabat), N-terminal HA or FLAG tag; experiment: LCCA co-expression, competing light chain m39, L1:L2 DNA 1:3 normalized to 1:1, SPR tag read-out
[17] = target: D3H44 light chain S131K (Kabat), N-terminal HA or FLAG tag; experiment: LCCA co-expression, competing light chain m37, L1:L2 DNA 1:9 normalized to 1:1, SPR tag read-out
[18] = target: D3H44 light chain Q124E_T180E (Kabat), N-terminal HA or FLAG tag; experiment: LCCA co-expression, competing light chain m36, L1:L2 DNA 1:3 normalized to 1:1, SPR tag read-out
[19] = target: D3H44 light chain Q124E_T180E (Kabat), N-terminal HA or FLAG tag; experiment: LCCA co-expression, competing light chain m38, L1:L2 DNA 1:3 normalized to 1:1, SPR tag read-out
[20] = target: D3H44 light chain Q124E_T178E (Kabat), N-terminal HA or FLAG tag; experiment: as above
[21] = target: D3H44 light chain Q124R_Q160K_T178R (Kabat), N-terminal HA or FLAG tag; experiment: LCCA co-expression, competing light chain m40, L1:L2 DNA 1:3 normalized to 1:1, SPR tag read-out
[22] = target: D3H44 light chain Q124E_T180E (Kabat), N-terminal HA or FLAG tag; experiment: LCCA co-expression, competing light chain m36, L1:L2 DNA 1:9 normalized to 1:1, SPR tag read-out
[23] = target: D3H44 light chain S131K (Kabat), N-terminal HA or FLAG tag; experiment: LCCA co-expression, competing light chain m37, L1:L2 DNA 1:3 normalized to 1:1, SPR tag read-out
[24] = target: D3H44 light chain Q124R_Q160K_T178R (Kabat), N-terminal HA or FLAG tag; experiment: as above
[25] = target: tissue factor (TF) antigen (UniProt P13726); experiment: SPR (ProteOn XPR36), Fab captured on anti-penta-His surface, TF injected as analyte, 1:1 fit; marked * (estimated from a Fab that differs only in the L chain tag)
[26] = target: tissue factor (TF) antigen (UniProt P13726); experiment: SPR (ProteOn XPR36), Fab captured on anti-penta-His surface, TF injected as analyte, 1:1 fit; the row's other values are marked * (estimated); reference wild-type D3H44 Fab
[27] = target: tissue factor (TF) antigen (UniProt P13726); experiment: SPR (ProteOn XPR36), Fab captured on anti-penta-His surface, TF injected as analyte, 1:1 fit; marked * (estimated from a Fab that differs only in the L chain tag); reference wild-type D3H44 Fab

change in median KD compared to wild type, -(log(KD design)-log(KD wt)) [1]: -0.12
Kd [2]: 210 pM
change in median KD compared to wild type, -(log(KD design)-log(KD wt)) [3]: -0.12
Kd [4]: 210 pM
Substance: D3H44 Fab heterodimer, H1L1 of LCCA Sets # 9705, 9706, 9704 and 9703 (H1 L143E_K145T_S188L; L1 Q124R)

H2L2:H2L1 normalized median ratio [5]: 55 of 100
H2L2:H2L1 normalized median ratio [6]: 66 of 100
H2L2:H2L1 normalized median ratio [7]: 59 of 100
H2L2:H2L1 normalized median ratio [8]: 45 of 100
H2L2:H2L1 normalized median ratio [9]: 25 of 100
H2L2:H2L1 normalized median ratio [10]: 41 of 100
H2L2:H2L1 normalized median ratio [11]: 34 of 100
H2L2:H2L1 normalized median ratio [12]: 75 of 100
Substance: D3H44 Fab heavy chain A139W_S188L (Kabat), C-terminal ABD2-His6 tag

H1L1:H1L2 normalized median ratio [13]: 12 of 100
H1L1:H1L2 normalized median ratio [14]: 88 of 100
H1L1:H1L2 normalized median scalar value ln(r1/f1) [14]: 1.97
H1L1:H1L2 normalized median ratio [15]: 16 of 100
H1L1:H1L2 normalized median ratio [16]: 84 of 100
H1L1:H1L2 normalized median scalar value ln(r1/f1) [16]: 1.68
Substance: D3H44 Fab heavy chain L143E_K145T_Q179D (Kabat), C-terminal ABD2-His6 tag

H2L2:H2L1 normalized median ratio [13]: 88 of 100
H2L2:H2L1 normalized median ratio [17]: 12 of 100
H2L2:H2L1 normalized median ratio [18]: 98 of 100
H2L2:H2L1 normalized median ratio [14]: 12 of 100
H2L2:H2L1 normalized median ratio [15]: 87 of 100
H2L2:H2L1 normalized median ratio [19]: 96 of 100
H2L2:H2L1 normalized median ratio [20]: 96 of 100
H2L2:H2L1 normalized median ratio [16]: 13 of 100
H2L2:H2L1 normalized median ratio [21]: 4 of 100
H2L2:H2L1 normalized median ratio [22]: 88 of 100
H2L2:H2L1 normalized median ratio [23]: 2 of 100
H2L2:H2L1 normalized median ratio [24]: 4 of 100
Substance: D3H44 Fab heavy chain Q179K (Kabat), C-terminal ABD2-His6 tag

H1L1:H1L2 normalized median ratio [6]: 68 of 100
H1L1:H1L2 normalized median ratio [9]: 72 of 100
H1L1:H1L2 normalized median scalar value ln(r1/f1) [9]: 0.94
H1L1:H1L2 normalized median ratio [11]: 32 of 100
H1L1:H1L2 normalized median scalar value ln(r1/f1) [11]: -0.77
H1L1:H1L2 normalized median ratio [12]: 28 of 100
Substance: D3H44 Fab heavy chain A139G_V190A (Kabat), C-terminal ABD2-His6 tag

Kd [25]: 210 pM
Change in median KD of h1l1 Fab heterodimer compared to wild type (-(log(KD design)-log(KD wt))) (log(KD) difference) [26]: -0.12
Change in median KD of h1l1 Fab heterodimer compared to wild type (-(log(KD design)-log(KD wt))) (log(KD) difference) [27]: -0.12
Substance: D3H44 H1L1 Fab heterodimer, H1 L124E_L143E_K145T, L1 Q124K_V133G_S176R_T178K
